Experimental data taken from patent CN118459575A.

Biological target: 新型冠状病毒SARS-CoV-2和SARS-CoV以及动物来源的SARS-like冠状病毒S1
Test: ELISA, S1 coated at 2 μg/mL, antibody titrated

B1: 广谱抗sarbecovirus和/或新冠突变株的抗体 SCM12-61 (antibody, V domains shown)
VH: QVQLVESGGGVVQPGRSLRLSCATSGFTFRSSAMHWVRQAPGKGLEWVAVIWFDGIKKYYTDSVKGRFTISRDNSKNTLYLQMNSLGAEDTAVYYCARDRAREFYPGPHCGDECYSSDAFDVWGQGTTVIVSS
VL: DIQMTQSPSSLSASVGDRVTITCRASQDINTYLNWYQQKSGRAPKFLIYAASSLQSGIPSRFSGSGSGTDFTLTIDSLQPEDFATYYCQQSHSIPYTFGQGTKLEIKR
- EC50: 0.0239 to 0.0405 µg/mL
